In test [1] the target is HXBc2. As to the kind of experiment: ELISA; deglycosylated.
Test [2] has as its target Du156.12. As to the kind of experiment: ELISA; deglycosylated.
The target of test [3] is Du156.12. As to the kind of experiment: ELISA.

With Deglycosylated VRC01, the EC50 is 0.045 µg/mL in test [1] and 0.05 µg/mL in test [2].
In test [3], VRC01 Heavy chain: A56G had an EC50 of 0.101 µg/mL.
In turn, VRC01 Heavy chain: I30T came in with an EC50 in test [3] of 0.063 µg/mL.
In test [3], VRC01 Heavy chain: K52N showed an EC50 of 0.056 µg/mL.
Same read-out and setting: as for VRC01 Heavy chain: P62K, the figure is 0.066 µg/mL.
Regarding VRC01 Heavy chain: R53N, in test [3], the EC50 came out at 0.063 µg/mL.
Still for that read-out and setting: the figure for VRC01 Heavy chain: R61Q is 0.086 µg/mL; for VRC01 Heavy chain: T33Y it is 0.048 µg/mL.
On the same count and under the same terms, the figure for VRC01 Heavy chain: V57T is 0.164 µg/mL; for VRC01 Heavy chain: V73T it is 0.097 µg/mL; for VRC01 Heavy chain: Y74S it is 0.071 µg/mL.
Same read-out and setting: as for VRC01 Light chain: Y30S, the figure is 0.196 µg/mL.
